The record followed here is patent US20220331423A1 (WISTAR INSTITUTE OF ANATOMY AND BIOLOGY, published 2022).

The target of this assay is T1, HSV-1 glycoprotein D (gD), non-fused, expressed from AdC68gD (HSV-1, UniProt Q05059 26-394).
T1 construct: Complete gD open reading frame (from pRE4) expressed in AdC68gD-infected cells; Tested as detergent cell extract (ELISA) or on and within infected cells; also called native gD; non-fused gD
Nature of the assay: confocal microscopy of AdC68gD-infected B78-H1/3E5 (human HVEM-EGFP) cells stained with MAb to gD.

T1 sequence (Q05059 26-394): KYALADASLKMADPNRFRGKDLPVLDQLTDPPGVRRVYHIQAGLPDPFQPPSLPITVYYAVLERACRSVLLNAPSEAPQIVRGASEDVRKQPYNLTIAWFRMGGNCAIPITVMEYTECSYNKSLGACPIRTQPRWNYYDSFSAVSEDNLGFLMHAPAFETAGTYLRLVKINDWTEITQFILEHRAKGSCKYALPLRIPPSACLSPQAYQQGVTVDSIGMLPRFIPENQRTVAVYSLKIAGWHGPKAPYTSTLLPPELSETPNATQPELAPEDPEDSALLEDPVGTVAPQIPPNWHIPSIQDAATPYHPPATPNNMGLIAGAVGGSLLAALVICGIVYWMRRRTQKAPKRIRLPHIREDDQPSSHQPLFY

B1: human HVEM fused to Enhanced Green Fluorescence Protein, expressed on B78H1/3E5 cells (receptor)
chain: LPSCKEDEYPVGSECCPKCSPGYRVKEACGELTGTVCEPCPPGTYIAHLNGLSKCLQCQMCDPAMGLRASRNCSRTENAVCGCSPGHFCIVQDGDHCAACRAYATSSPGQRVQKGGTESQDTLCQNCPPGTFSPNGTLEECQHQTKCSWLVTKAGAGTSSSHWVWWFLSGSLVIVIVCSTVGLIICVKRRKPRGDVVKVIVSVQRKRQEAEGEATVIEALQAPPDVTTVAVEETIPSFTGRSPNH
notes: whole, on cells; Mouse melanoma cells B78H1/3E5; also called HVEM-EGFP; HVEM on B78-H1/3E5 cells; not shown: Enhanced Green Fluorescence Protein (EGFP)
Take B1: the binding result is “binds”.
